Experimental data taken from patent US20140308287A1 (SEA LANE BIOTECHNOLOGIES, published 2014).
Positions count from the first letter of the chain named. Where two headings read alike, the source gives them in different places.

B1: 2995-D01 (other)
VH: EVQLLESGGGLVQPGGSLRLSCAASGFTFSSYWMSWVRQAPGKGLEWVALISNGGSIKYYADSVKGRFTISRDNSKNTLYLQMNSLRAEDTAVYYCAKDNFILLNSWFDYWGQGTLVTVSS
light: QPVLHQPPAMSSALGTTIRLTCTLRNDHDIGVYSVYWYQQRPGHPPRFLLRYFSQSDKSQGPQVPPRFSGSKDVARNRGYLSISELQPEDEAMYYCAMGARSSVTHVFGSGTQLTVLSQPKATPSVTLFPPSSEELQANKATLVCLMNDFYPGILTVTWKADGTPITQGVEMTTPSKQSNNKYAASSYLSLTPEQWRSRRSYSCQVMHEGSTVEKTVAPAECS
B2: 2995-D03 (other)
VH: B1 VH with W33A, S35H, G55S, S56G, I57Y
light: B1 light
notes: copies: 1 + 1
B3: 2995-D07 (other)
VH: B1 VH with S31N, S35H, L50A, S56G, I57Y
surrogate light: B1 light
notes: copies: 1 + 1
B4: 2995-D08 (other)
VH: B1 VH with S31D, S35H, L50A, N53W, I57Y, K58T
light: B1 light
B5: 2995-D11 (other)
VH: B1 VH with S35H, L50V, G54N, S56R, I57Y
surrogate light: B1 light
notes: copies: 1 + 1
B6: 2995-E08 (other)
VH: B1 VH with S35H, L50G, N53S, I57Y
light: B1 light
B7: 2995-E12 (other)
VH: B1 VH with S31N, S35H, N53S, G55S, S56T, I57Y, K58I, Y59S
light: B1 light
B8: 2995-F08 (other)
VH: B1 VH with S35H, A49S, L50G, G54N, S56R, I57Y
light: B1 light
B9: 2995-G10 (other)
VH: B1 VH with S31D, S35N, L50N, S56T, I57Y, K58I
light: B1 light
B10: 2995-G11 (other)
VH: B1 VH with S35H, A49S, L50A, N53S, S56G, I57Y, K58I
surrogate light: B1 light
notes: copies: 1 + 1
B11: 2995-H03 (other)
VH: B1 VH with S31D, S35H, L50V, N53G, S56A, I57Y
light: B1 light
B12: 2995-H07 (other)
VH: B1 VH with S31D, S35N, G54N, I57Y, K58T
light: B1 light
B13: 2995-H09 (other)
VH: B1 VH with S31N, S35H, L50S, S56R, I57Y, K58I
light: B1 light
B14: 2995-H11 (other)
VH: B1 VH with S31D, S35H, A49S, L50A, N53S, G54S, S56G, I57Y
light: B1 light
B15: 3000-A04 (other)
VH: B1 VH with S35H, N53A, S56T, I57S, F101E, I102K, L103N, N105Y, S106T, F108L
light: B1 light
notes: copies: 1 + 1
B16: 3000-A05 (other)
VH: EVQLLESGGGLVQPGGSLRLSCAASGFTFSDYWMHWVRQAPGKGLEWVALISAGGTYKYYADSVKGRFTISRDNSKNTLYLQMNSLRAEDTAVYYCAKDNEKNLYTWLDYWGQGTLVTVSS
light: B1 light
B17: 3000-A07 (other)
VH: B16 VH with L50V, A53G, T56A
surrogate light: B1 light
B18: 3000-A08 (other)
VH: B16 VH with D31S, H35N, A53N, T56G, Y57I
light: B1 light
B19: 3000-A11 (other)
VH: B16 VH with D31S, A53W, T56G, Y57T
light: B1 light
notes: copies: 1 + 1
B20: 3000-B02 (other)
VH: B16 VH with D31S, L50V, A53S, T56N, K58I
surrogate light: B1 light
B21: 3000-B09 (other)
VH: B16 VH with A53S, T56G
light: B1 light
B22: 3000-C03 (other)
VH: B16 VH with D31S, A53N, G54N
light: B1 light
notes: copies: 1 + 1
B23: 3000-C07 (other)
VH: B16 VH with D31S, H35S, A53N, T56S, Y57I
surrogate light: B1 light
B24: 3000-E04 (other)
VH: B16 VH with L50V, A53W, T56A
surrogate light: B1 light
B25: 3000-G09 (other)
VH: B16 VH with D31S, A53N, T56G
light: B1 light
notes: copies: 1 + 1
B26: 3000-B06 (other)
VH: B16 VH with D31S, A53N, G54N, T56A, K58I
light: B1 light
B27: 3000-E01 (other)
VH: B16 VH with D31S, A53N, G54N, T56A, K58T
surrogate light: B1 light
B28: 3000-H03 (other)
VH: B16 VH with A49S, A53N, T56G, K58T
surrogate light: B1 light
B29: 3000-F09 (other)
VH: B16 VH with D31S, A53S, G54S, T56G, Y57I, K58T
surrogate light: B1 light
B30: 3000-E07 (other)
VH: B16 VH with D31N, A53G, T56G, Y57N, K58I
light: B1 light
notes: copies: 1 + 1
B31: 3000-D07 (other)
VH: B16 VH with D31S, A49S, G54S, T56S, Y57I
light: B1 light
notes: copies: 1 + 1
B32: 3000-B03 (other)
VH: B16 VH with D31N, A53N, G54N, K58T
light: B1 light
notes: copies: 1 + 1
B33: 3000-C08 (other)
VH: B16 VH with D31S, L50V, A53N, G54N, T56R
surrogate light: B1 light
notes: copies: 1 + 1

Columns and labels:
[1] = biological target: T1, human ErbB3-Fc (R&D Systems) (human, UniProt P21860 20-643); assay: ELISA on ErbB3-Fc, soluble monovalent Sab (Example 42)
T1 construct: Bought protein; also called wild-type ErbB3-Fc fusion; immobilized ErbB3; not shown: Fc part of the bought fusion protein; not described

[2] = biological target: T1, human ErbB3-Fc (R&D Systems); assay: as above; remark: listed apart in the source

Row | Binder | EC50 [1] | EC50 [2]
1 | B1 | 0.038 nM | 
2 | B2 | 0.015 nM | 
3 | B3 | 0.033 nM | 
4 | B4 | 0.052 nM | 
5 | B5 | 0.027 nM | 
6 | B6 | 0.039 nM | 
7 | B7 | 0.04 nM | 
8 | B8 | 0.059 nM | 
9 | B9 | 0.022 nM | 
10 | B10 | 0.029 nM | 
11 | B11 | 0.026 nM | 
12 | B12 | 0.025 nM | 
13 | B13 | 0.02 nM | 
14 | B14 | 0.063 nM | 
15 | B15 |  | 0.127 nM
16 | B16 |  | 0.082 nM
17 | B17 |  | 0.087 nM

Row | Binder | EC50 [1] | EC50 [2]
18 | B18 |  | 0.072 nM
19 | B19 |  | 0.139 nM
20 | B20 |  | 0.115 nM
21 | B21 |  | 0.07 nM
22 | B22 |  | 0.164 nM
23 | B23 |  | 0.102 nM
24 | B24 |  | 0.109 nM
25 | B25 |  | 0.158 nM
26 | B26 |  | 0.084 nM
27 | B27 |  | 0.105 nM
28 | B28 |  | 0.109 nM
29 | B29 |  | 0.118 nM
30 | B30 |  | 0.121 nM
31 | B31 |  | 0.152 nM
32 | B32 |  | 0.179 nM
33 | B33 |  | 0.182 nM
